The series in a line: soluble on expression in E. coli; label from the status in PepcDB or PDB records.
Take “MGSDKIHHHHHHMNQRMKSHFQYSTLENIPKAFDILKDPPKKLYCVGDTKLLDTPLKVAIIGTRRPTPYSKQHTITLARELAKNGAVIVSGGALGVDIIAQENALPKTIMLSPCSLDFIYPTNNHKVIQEIAQNGLILSEYEKDFMPIKGSFLARNRLVIALSDVVIIPQADLKSGSMSSARLAQKYQKPLFVLPQRLNESDGTNELLEKGQAQGIFNIQNFINTLLKDYHLKEMPEMEDEFLEYCAKNPSYEEAYLKFGDKLLEYELLGKIKRINHIVVLA”: the “soluble on expression in E. coli” value is reported as “not soluble”.
For the sequence “ACQIFVRNLPFDFTWKMLKDKFNECGHVLYADIKMENGKSKGCGVVKFESPEVAERACRMMNGMKLSGREIDVRIDRNA”, the “soluble on expression in E. coli” value was “soluble”.
Turning to “MSLAADTLRIKQLQRCGDLFSDSQQRWCLCAEGLRANLPTVWLGGTRLSEADIERQGDRLTLKLARQAQRSAPLWLADGGRTSNPVWLTRQRSHVIAAGPDEVAKNMDGLTTYVDLVSLLIEEKYDGLGEARRIAGKYGAQVVGAIPPLNVYQLRLPVEDLVQRDAMVLRMGSEVSVDAVIVEESAPERGEEGNGRGTRAIDQADEWAANRFMDALYFYRRRIAASGLPVKPVRVGVIEREVDFDAPGFSHYRGGCEQGQTCLYARDGNRPASHGSHVAGILAAQGEGFLPGLGKHSPGFEVMVERNSDAGITANIAASVNLVEDGVRVLNWSWGIHRVGARDVNGDEVDSLVRSGLAMSGYEELLEEFFLWLRKEHPDVVVVNSAGNGASWSGTDEYRLPSSFITEQLLVVGGHQRSGKATAVEAHDHVRKRHSSNIDMRVDVSAAACIRPVSAEAAHCGTSYATPLVTATVATMLSINPALTPEQVRMLLRRSALTLGAEQDFEAMDAEDLTAPILPSERGGRLNDPDLGRSARLDMQRALDLAVQSLERVREGHHHHHH”, the “soluble on expression in E. coli” value is given as “not soluble”.
The value for “GPLGSPPSKEILTLKQVQEFLKDGDDVVILGVFQGVGDPGYLQYQDAANTLREDYKFHHTFSTEIAKFLKVSLGKLVLMQPEKFQSKYEPRMHVMDVQGSTEASAIKDYVVKHALPLVGHRKTSNDAKRYSKRPLVVVYYSVDFSFDYRTATQFWRNKVLEVAKDFPEYTFAIADEEDYATEVKDLGLSESGGDVNAAILDESGKKFAMEPEEFDSDALREFVMAFKKGKLKPVIKSQPVPKNNKGAAAS” was “soluble”.
For “HLPETIYVIRKGDMVIRPKYDEYQQTNGTEIIRFDQTRKESPFKVQRIIERSCKFYGNNYISKKAETNRITGISSKPPILLTPLFPTYFFPTHSDRQEENIWINMHYIENVKELKNRKSKIIFANGDSLTLNVSFHSLWHQYTNAIIYYYMVDKQSRMKSNNPEQPIDYNQSSLNIFEALSRYSLFEEN” the value was “not soluble”; for “MGSDKIHHHHHHMSRPADKPQPFYFAYGSNMNPAQIEARCRKPEVVATARLPDHRLGFFGSSKIWDGGEESAQPEPGADLWGVVYRLSFHDAEILDTWQKVWLDGTGPYFHFPTQVFDAEGRNYPVLLYKRDVLGPRQKPSAPYLDHIIAGAMARALPPPYIDLLRAIPTCQASTPVPRKASFNPEFFAGLACQCGD”, “not soluble”.
For “MLKFRTVHGGLRLLGIRRTSTAPAASPNVRRLEYKPIKKVMVANRGEIAIRVFRACTELGIRTVAIYSEQDTGQMHRQKADEAYLIGRGLAPVQAYLHIPDIIKVAKENNVDAVHPGYGFLSERADFAQACQDAGVRFIGPSPEVVRKMGDKVEARAIAIAAGVPVVPGTDAPITSLHEAHEFSNTYGFPIIFKAAYGGGGRGMRVVHSYEELEENYTRAYSEALAAFGNGALFVEKFIEKPRHIEVQILGDQYGNILHLYERDCSIQRRHQKVVEIAPAAHLDPQLRTRLTSDSVKLAKQVGYENAGTVEFLVDRHGKHYFIEVNSRLQVEHTVTEEITDVDLVHAQIHVSEGRSLPDLGLRQENIRINGCAIQCRVTTEDPARSFQPDTGRIEVFRSGEGMGIRLDNASAFQGAVISPHYDSLLVKVIAHGKDHPTAATKMSRALAEFRVRGVKTNIAFLQNVLNNQQFLAGTVDTQFIDENPELFQLRPAQNRAQKLLHYLGHVMVNGPTTPIPVKASPSPTDPVVPAVPIGPPPAGFRDILLREGPEGFARAVRNHPGLLLMDTTFRDAHQSLLATRVRTHDLKKIAPYVAHNFSKLFSMENWGGATFDVAMRFLYECPWRRLQELRELIPNIPFQMLLRGANAVGYTNYPDNVVFKFCEVAKENGMDVFRVFDSLNYLPNMLLGMEAAGSAGGVVEAAISYTGDVADPSRTKYSLQYYMGLAEELVRAGTHILCIKDMAGLLKPTACTMLVSSLRDRFPDLPLHIHTHDTSGAGVAAMLACAQAGADVVDVAADSMSGMTSQPSMGALVACTRGTPLDTEVPMERVFDYSEYWEGARGLYAAFDCTATMKSGNSDVYENEIPGGQYTNLHFQAHSMGLGSKFKEVKKAYVEANQMLGDLIKVTPSSKIVGDLAQFMVQNGLSRAEAEAQAEELSFPRSVVEFLQGYIGVPHGGFPEPFRSKVLKDLPRVEGRPGASLPPLDLQALEKELVDRHGEEVTPEDVLSAAMYPDVFAHFKDFTATFGPLDSLNTRLFLQGPKIAEEFEVELERGKTLHIKALAVSDLNRAGQRQVFFELNGQLRSILVKDTQAMKEMHFHPKALKDVKGQIGAPMPGKVIDIKVVAGAKVAKGQPLCVLSAMKMETVVTSPMEGTVRKVHVTKDMTLEGDDLILEIE” the value was “not soluble”.
As to “MSWITNYDAAQRELLMQKVQMQMSERRFRHVLGVEETAVALAAKYGADEAKASIAALTHDYAKERPNDEFELIIRRDGFDLALLNYGNEIWHGLVGADIVQRELAIDDEEILQAIRVHTTGAAKMSLLDKIIYVADYIEPGRDFPGVKEAREIALVDLDAAVAYETKHTLLHLIEQEHKIYPKTLETYNQWVVNQK”, the “soluble on expression in E. coli” value is “not soluble”.
The value for “MAHHHHHHMGAEHSTGMTKVLMPQFSTKRQTGPFLSPVERVTASGQSVVIECGDGVSRVDDGTAVVELFALDSKATEEDAMVEAFGEFAITKDDLIGRTRSSLKRGRVEEDEDLPCYFLAPRRRSCSVGGHNSADADSVLASPSRWGAVETDADGAMWRLLQEYDELLCVEAIGDATEDLYCYPDHRKDDEFDSNAEDFSGNDYPDDADERSGESAERAEEEASGFSTERRGGRVASHSTYGMFCEEGYSERSLSSVWNSDG” was “soluble”.
The value for “MRIFLLFLFFVLFTFGVEGYVIEEINGSTGLRIHKEIKRKVYITEDALITETEKEFMVQKIENGLPRIYRVIKSSKSYMDFSKMTPLFLVSLPFLDCKQRVCVVNRGAFRPTNEYKKIRGFKARKVVVESHALGKKTTLIQWYTKEWKELVEANRLEDKFYVNFIRAIMKEKNLSEANIPLKEIQNFLKEINEKFGGVVRTQQQMPLFNTYSEVISVKKTEIPDYIYKLPEGYTKIK” was “not soluble”; that for “MNSFVLMATVIREPELRFTKENQTPVCEFLVEFPGMRDDSPKESLKVVGWGNLANTIKETYHPGDRLIIEGRLGMNMIERQEGFKEKRAELTASRISLVDSGNGINPGELSSPPEPEAVDLSNTDDIPFLEHHHHHH” was “soluble”; that for “MTISGISSDQPFIETIDTLMLGGFPVLSTTPSAFVASLYRSLIEERQQRVFFANTNFIVQCQSLRGRMYSERVCILNDGIGMDLAALFIHGRRFVSNLNGTDLIPYLCQHAPRPLRFFLLGAKPGVADMAAQMLCQLGQLVVGTCDGYAQFVATGEDLVESINASGADVLLVALGNPVQERWILDHDVQLRTPLVFGVGALFDFMSGNVRRAPLWVRRVRGEWLYRLLLEPRRLLKRYSWDLLRFFGVCLLRRREGD” was “not soluble”.
For “MSLAETFWVDVQRAEGRPLNLELIAPLSVGSKSVEEVENVAIRVELTNGCVGWGEVPVFPSVTAVNHTVALAKAMEACEFLSCSSPMVLSLVLSEIGGILPGPELASVRAGVEMALIDAVANSIDVPLWRLFGGVANTLTTGVTLPTVFPAEAYSQGASKYCQSGFRTFKLKIGKNTSAEIKALQAIQAAHPLCSLILDANEAYTCQEAIEILQKLYDSGITPAVLEQPVHRSDWKGLGEVSNFAREKKYGISVAVDETCQSLIEVRRVIKENLADAINIKLAKFGVMGALEIIELARESGVKLMISGTVESRLATGFAAHLAAGLGCFKSVVLDMPFLLSEDPVICGYEASGPVYKFLNVRGQGGFLKWDFSSWEGHHHHHH” the value was “soluble”; for “MLIDSFEDLDGVIQEIKFRLTRAPMEMGRERECCVLSTSPGCRRAASFPFVGDSSIIQASSLKVRSKSESEALNKMRLTQMNLETVRKRLSESTIKEKDEGSDYQSHSSSSSECEVDDLELFCAGPLELKEEEKLRKSVRFADDCGHELYMVRVATEPSNCPPKLSPSVLRRYRGESFEEEEMTTREPAPVWNLMFKQPAADYVRFRENMETNKVSLENVILNNEAYKVMGTIKVGNIAFEKSVFVRYTMNGWISYMDKAAIYQPSTSKIQDTFKFDLDLPSSVEKIHQIEFCICFKANGTEYWDSNSGTNYVLHCEQQQHPAVPQQRRASLFGSSKYLDRDDAYKLDYNDWGKFASWKALSTDGPYW”, “soluble”; for “SDMGTSALSKKPWWTLPQNFHAPMVFHMEEDQEELIFGHGDTYLRCIEVHSHTLIQLESWFTATGQTRVTVGPHRARQWLLHMFCCVGSQDSYHHARGLEMLERVRSQPLTNDDLVTSISVPPYTGDLSLAPRISGTVCLSVPQPSPYQVIGCSGFHLSSLYP”, “soluble”.
For the sequence “GMANLLSTCTSESGNIQHISPQNAGWEYVGFDVWQLKAGESITLPSDERERCLVLVAGLASVKAADSFFYRIGQRMSPFERIPAYSVYLPHHTEAKVTAETDLELAVCSAPGFGELPVRLISPQEVGVEHRGKGRNQRLVHNILPDSQLADSLLVVEVYTNAGATSSWPAHKHDTAVEGQETYLEETYYHRFNPPQGFCLQRVYTDDRSLDECMAVYNRDVVKVPKGYHPVATIAGYDNYYLNVMAGPLRKWRFTWEENHAWINSPDYPR”, the “soluble on expression in E. coli” value is on record as “soluble”.
The value for “GDSLTAQEALATLALSGDDDGPRQTRSYQVMNGIAVLPVSGTLVSRTRALQPYSGMTGYNGIIARLQQAASDPMVDGILLDMDTPGGMVAGAFDCADIIARVRDIKPVWALANDMNCSAGQLLASAASRRLVTQTARTGSIGVMMAHSNYGAALEKQGVEITLIYSGSHKVDGNPYSHLPDDVRETLQSRMDATRQMFAQKVSAYTGLSVQAVLDTEAAVYSGQEAIDAGLAD” was “not soluble”; that for “IVGGYTCEENSLPYQVSLNSGSHFCGGSLISEQWVVSAAHCYKTRIQVRLGEHNIKVLEGNEQFINAAKIIRHPKYNRDTLDNDIMLIKLSSPAVINARVSTISLPTAPPAAGTECLISGWGNTLSFGADYPDELKCLDAPVLTQAECKASYPGKITNSMFCVGFLEGGKDSCQRDAGGPVVCNGQLQGVVSWGHGCAWKNRPGVYTKVYNYVDWIKDTIAANS” was “soluble”; that for “MNTEVIHYIIRFLIGDESGNDQLLSRIGYTSKQSEMSRYSIVIRASNFFDSDIYGTDKAFPLLPLKEWEGVPLLFGEPTEELLEESDTLVLNADIVASTYFLISRYEEMYRRKLRDIHGRFPGRESLPFKAGFLQRPVVDEYGAILRTKIRQMGWPVKDPVPHFSMVNLTHDVDEPFEYRGWRSFARALIKERKSPFKAFRLAYANPASDRFFTFPRFVDWDKILRSKMPDCCRIIFFFKAPGKAPQDAPNYSLRKPLYQSLRSLVKNNGIVIGLHSNYSAGLNPELIGKQRKRLMSDTDMAVDCNRHHYLAAREPEDMQALISAGIRHDYTMGYADVAGFRLGTSRPVRFIMPSTRRLTELILHPLTLMDCTLHRQEYMGLDEATAIELCKELLMHTFIHGGEATLLWHNEYLSRDIHPWHARLYREVLRLIETMEEKQEEESFDYETAIDQ” was “not soluble”.
For “YFNLQFGANLDVYLTKKWSVGADLLLSFKTYQYKNTLLGYSELTMKENQLWLELPIVLKYTMGQKKLRYYLQAGGAVSMILSSNSNIVRKDAATQSNQAIGPDINTRDLRNMFNYSLVGGGGIRYKAGYGYLVLDVKYMYGLNNISDMDNKYSNDELIYKYGYIDNDFTLNSLMFSIGYYKSFYKPKKLPTYEK” the value was “not soluble”.
